Molecular target: PXR:RXRa (Homo sapiens, UniProt O75469;P19793 full;full)
Experiment: no ligand; PBM; 270 nM : 90 nM RXRa; PBS pH 7.4, 2% milk, 0.02% Triton X-100, 1 mM DTT, BSA, 0.4 mg/ml salmon testes DNA
Conditions: tags: His kept;His cleaved; copies: 1;1; label: surface-attached array probe
Summary of the method: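 For binding z-scores, the reference was random background probes on custom Agilent 4×180K protein-binding microarrays. These arrays were incubated 1 h with ligand-free nuclear receptor dimers in PBS pH 7.4, 2% milk, 0.02% Triton X-100, 1 mM DTT, 0.2 mg/mL BSA and 0.4 mg/ml salmon testes DNA. Fluorescence was scanned after antibody detection of each partner (one per run) and regression-normalized.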

Sequence of PXR:RXRa (O75469 whole entry, chain 1 of 2): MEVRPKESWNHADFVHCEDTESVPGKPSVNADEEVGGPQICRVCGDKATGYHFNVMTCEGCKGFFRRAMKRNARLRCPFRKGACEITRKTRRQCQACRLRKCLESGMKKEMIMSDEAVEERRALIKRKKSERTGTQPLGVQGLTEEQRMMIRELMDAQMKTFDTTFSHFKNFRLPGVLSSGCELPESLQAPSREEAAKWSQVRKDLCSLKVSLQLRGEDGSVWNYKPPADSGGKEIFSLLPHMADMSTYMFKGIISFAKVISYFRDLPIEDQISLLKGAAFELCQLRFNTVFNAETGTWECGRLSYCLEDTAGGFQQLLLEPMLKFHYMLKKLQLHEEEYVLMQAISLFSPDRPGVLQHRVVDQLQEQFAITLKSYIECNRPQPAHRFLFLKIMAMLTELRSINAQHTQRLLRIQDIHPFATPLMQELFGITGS
Sequence of PXR:RXRa (P19793 whole entry, chain 2 of 2): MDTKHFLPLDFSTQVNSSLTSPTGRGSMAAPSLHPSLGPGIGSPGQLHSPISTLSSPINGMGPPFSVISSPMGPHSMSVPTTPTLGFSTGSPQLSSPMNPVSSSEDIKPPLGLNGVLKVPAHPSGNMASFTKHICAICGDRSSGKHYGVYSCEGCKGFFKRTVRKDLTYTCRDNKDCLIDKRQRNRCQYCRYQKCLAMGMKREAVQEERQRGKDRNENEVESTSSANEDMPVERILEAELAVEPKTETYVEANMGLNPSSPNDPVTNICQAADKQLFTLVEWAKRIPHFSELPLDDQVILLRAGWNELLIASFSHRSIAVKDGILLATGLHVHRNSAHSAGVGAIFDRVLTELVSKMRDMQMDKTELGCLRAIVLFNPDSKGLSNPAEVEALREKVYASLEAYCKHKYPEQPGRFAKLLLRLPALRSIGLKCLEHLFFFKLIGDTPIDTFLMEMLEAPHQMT

Binder	binding signal
NRC3_wobSeed50_DR2_C25T_o1 (dsDNA) DNA 1: GCCCTAGTTGGTCAGGAGGTCACATACCGGATATGAGCGATTGACAGCGTAGAATGAAGG DNA 2: CCTTCATTCTACGCTGTCAATCGCTCATATCCGGTATGTGACCTCCTGACCAACTAGGGC	3.69 PBM z-score against 500 random probes
NRC3_wobSeed23_DR0_A9G_o1 (dsDNA) DNA 1: GCGGAACGGGGGCAAGTTGATAGCAGAGTTTGATGGGCGATTGACAGCGTAGAATGAAGG DNA 2: CCTTCATTCTACGCTGTCAATCGCCCATCAAACTCTGCTATCAACTTGCCCCCGTTCCGC	3.23 PBM z-score against 500 random probes
NRC3_wobSeed119_DR4_o1 (dsDNA) DNA 1: GCGGAACGAGGGCATTCGAGTTGATAGCATGGCGATGCGATTGACAGCGTAGAATGAAGG DNA 2: CCTTCATTCTACGCTGTCAATCGCATCGCCATGCTATCAACTCGAATGCCCTCGTTCCGC	3.4 PBM z-score against 500 random probes
NRC3_wobSeed29_DR1_C13G_o1 (dsDNA) DNA 1: GCGCTTACGGGTGAAAGGTTATAGCATGAATAGAATGCGATTGACAGCGTAGAATGAAGG DNA 2: CCTTCATTCTACGCTGTCAATCGCATTCTATTCATGCTATAACCTTTCACCCGTAAGCGC	3.2 PBM z-score against 500 random probes
NRC3_wobSeed82_DR3_A15T_o1 (dsDNA) DNA 1: GCATCGAAAGGTCGTCGAGGTGAGTATACACCGTTTGCGATTGACAGCGTAGAATGAAGG DNA 2: CCTTCATTCTACGCTGTCAATCGCAAACGGTGTATACTCACCTCGACGACCTTTCGATGC	3.66 PBM z-score against 500 random probes
NRC3_wobSeed101_DR4_C18T_o1 (dsDNA) DNA 1: GCCCTTACGGGTCACTCTAGGTTATAGCATCGGAGTGCGATTGACAGCGTAGAATGAAGG DNA 2: CCTTCATTCTACGCTGTCAATCGCACTCCGATGCTATAACCTAGAGTGACCCGTAAGGGC	3.67 PBM z-score against 500 random probes
NRC3_wobSeed130_DR5_T29C_o1 (dsDNA) DNA 1: GCCTCGAAAGGTCGTGCTCAGGTGAGTACACCAAACGCGATTGACAGCGTAGAATGAAGG DNA 2: CCTTCATTCTACGCTGTCAATCGCGTTTGGTGTACTCACCTGAGCACGACCTTTCGAGGC	3.76 PBM z-score against 500 random probes
NRC3_wobSeed130_DR5_C19T_o1 (dsDNA) DNA 1: GCCTCGAAAGGTCGTGCTTAGGTGAGTATACCAAACGCGATTGACAGCGTAGAATGAAGG DNA 2: CCTTCATTCTACGCTGTCAATCGCGTTTGGTATACTCACCTAAGCACGACCTTTCGAGGC	3.37 PBM z-score against 500 random probes
NRC3_wobSeed130_DR5_G16C_o1 (dsDNA) DNA 1: GCCTCGAAAGGTCGTCCTCAGGTGAGTATACCAAACGCGATTGACAGCGTAGAATGAAGG DNA 2: CCTTCATTCTACGCTGTCAATCGCGTTTGGTATACTCACCTGAGGACGACCTTTCGAGGC	3.28 PBM z-score against 500 random probes
NRC3_wobSeed130_DR5_A30G_o1 (dsDNA) DNA 1: GCCTCGAAAGGTCGTGCTCAGGTGAGTATGCCAAACGCGATTGACAGCGTAGAATGAAGG DNA 2: CCTTCATTCTACGCTGTCAATCGCGTTTGGCATACTCACCTGAGCACGACCTTTCGAGGC	3.26 PBM z-score against 500 random probes
NRC3_wobSeed30_DR1_G7T_o1 (dsDNA) DNA 1: GCACTATCAGGCCAAGGGTCACTCAAGATTAGTCCGGCGATTGACAGCGTAGAATGAAGG DNA 2: CCTTCATTCTACGCTGTCAATCGCCGGACTAATCTTGAGTGACCCTTGGCCTGATAGTGC	3.31 PBM z-score against 500 random probes
NRC3_wobSeed137_DR5_A5G_o1 (dsDNA) DNA 1: GCATGTGTAGGTTACATCCGGGTCATTCAGGCTATGGCGATTGACAGCGTAGAATGAAGG DNA 2: CCTTCATTCTACGCTGTCAATCGCCATAGCCTGAATGACCCGGATGTAACCTACACATGC	3.72 PBM z-score against 500 random probes
NRC3_wobSeed137_DR5_T6C_o1 (dsDNA) DNA 1: GCATACGTAGGTTACATCCGGGTCATTCAGGCTATGGCGATTGACAGCGTAGAATGAAGG DNA 2: CCTTCATTCTACGCTGTCAATCGCCATAGCCTGAATGACCCGGATGTAACCTACGTATGC	3.61 PBM z-score against 500 random probes
NRC3_wobSeed58_DR2_G23C_o1 (dsDNA) DNA 1: GCATCGAAAGGTCGTGAGGTGACTATACAGAAAGGCGCGATTGACAGCGTAGAATGAAGG DNA 2: CCTTCATTCTACGCTGTCAATCGCGCCTTTCTGTATAGTCACCTCACGACCTTTCGATGC	3.52 PBM z-score against 500 random probes
NRC3_wobSeed142_DR5_G22T_o1 (dsDNA) DNA 1: GCATACCAAGGTGATCGTGAGTTCGTTGATACTAACGCGATTGACAGCGTAGAATGAAGG DNA 2: CCTTCATTCTACGCTGTCAATCGCGTTAGTATCAACGAACTCACGATCACCTTGGTATGC	3.5 PBM z-score against 500 random probes
NRC3_wobSeed5_DR0_C4T_o1 (dsDNA) DNA 1: GCCTTTACGGGTCAAGGTTATAGCACGGGTGGTACGGCGATTGACAGCGTAGAATGAAGG DNA 2: CCTTCATTCTACGCTGTCAATCGCCGTACCACCCGTGCTATAACCTTGACCCGTAAAGGC	3.7 PBM z-score against 500 random probes
NRC3_wobSeed5_DR0_T5G_o1 (dsDNA) DNA 1: GCCCGTACGGGTCAAGGTTATAGCACGGGTGGTACGGCGATTGACAGCGTAGAATGAAGG DNA 2: CCTTCATTCTACGCTGTCAATCGCCGTACCACCCGTGCTATAACCTTGACCCGTACGGGC	3.48 PBM z-score against 500 random probes

Binder	binding signal
NRC3_wobSeed5_DR0_G9A_o1 (dsDNA) DNA 1: GCCCTTACAGGTCAAGGTTATAGCACGGGTGGTACGGCGATTGACAGCGTAGAATGAAGG DNA 2: CCTTCATTCTACGCTGTCAATCGCCGTACCACCCGTGCTATAACCTTGACCTGTAAGGGC	3.62 PBM z-score against 500 random probes
NRC3_wobSeed5_DR0_A22C_o1 (dsDNA) DNA 1: GCCCTTACGGGTCAAGGTTATCGCACGGGTGGTACGGCGATTGACAGCGTAGAATGAAGG DNA 2: CCTTCATTCTACGCTGTCAATCGCCGTACCACCCGTGCGATAACCTTGACCCGTAAGGGC	3.55 PBM z-score against 500 random probes
NRC3_wobSeed61_DR2_T5C_o1 (dsDNA) DNA 1: GCCGCCCAAGGTCAGCAGGTCAGTGAAAGCGACGTGGCGATTGACAGCGTAGAATGAAGG DNA 2: CCTTCATTCTACGCTGTCAATCGCCACGTCGCTTTCACTGACCTGCTGACCTTGGGCGGC	3.73 PBM z-score against 500 random probes
NRC3_wobSeed45_DR1_A8G_o1 (dsDNA) DNA 1: GCTGTCAGAGTTCAAAGGTAACGTAAGTATCCACACGCGATTGACAGCGTAGAATGAAGG DNA 2: CCTTCATTCTACGCTGTCAATCGCGTGTGGATACTTACGTTACCTTTGAACTCTGACAGC	6.41 PBM z-score against 500 random probes
NRC3_wobSeed66_DR2_A17G_o1 (dsDNA) DNA 1: GCAATACAGGGTCACTGGGCCAGAGTAGGTACGAATGCGATTGACAGCGTAGAATGAAGG DNA 2: CCTTCATTCTACGCTGTCAATCGCATTCGTACCTACTCTGGCCCAGTGACCCTGTATTGC	3.74 PBM z-score against 500 random probes
NRC3_wobSeed66_DR2_A17T_o1 (dsDNA) DNA 1: GCAATACAGGGTCACTTGGCCAGAGTAGGTACGAATGCGATTGACAGCGTAGAATGAAGG DNA 2: CCTTCATTCTACGCTGTCAATCGCATTCGTACCTACTCTGGCCAAGTGACCCTGTATTGC	3.45 PBM z-score against 500 random probes
NRC3_wobSeed66_DR2_C15T_o1 (dsDNA) DNA 1: GCAATACAGGGTCATTAGGCCAGAGTAGGTACGAATGCGATTGACAGCGTAGAATGAAGG DNA 2: CCTTCATTCTACGCTGTCAATCGCATTCGTACCTACTCTGGCCTAATGACCCTGTATTGC	3.57 PBM z-score against 500 random probes
NRC3_wobSeed66_DR2_A27G_o1 (dsDNA) DNA 1: GCAATACAGGGTCACTAGGCCAGAGTGGGTACGAATGCGATTGACAGCGTAGAATGAAGG DNA 2: CCTTCATTCTACGCTGTCAATCGCATTCGTACCCACTCTGGCCTAGTGACCCTGTATTGC	3.32 PBM z-score against 500 random probes
NRC3_wobSeed138_DR5_C7A_o1 (dsDNA) DNA 1: GCGATAAAGGGTCAGCTAGAGGCCAGAGTATGGAAAGCGATTGACAGCGTAGAATGAAGG DNA 2: CCTTCATTCTACGCTGTCAATCGCTTTCCATACTCTGGCCTCTAGCTGACCCTTTATCGC	3.54 PBM z-score against 500 random probes
NRC3_wobSeed138_DR5_G9A_o1 (dsDNA) DNA 1: GCGATACAAGGTCAGCTAGAGGCCAGAGTATGGAAAGCGATTGACAGCGTAGAATGAAGG DNA 2: CCTTCATTCTACGCTGTCAATCGCTTTCCATACTCTGGCCTCTAGCTGACCTTGTATCGC	3.38 PBM z-score against 500 random probes
NRC3_wobSeed13_DR0_T18G_o1 (dsDNA) DNA 1: GCCGTCCAAGGTCAAGGGCAGTGAAAGAGACTCGAAGCGATTGACAGCGTAGAATGAAGG DNA 2: CCTTCATTCTACGCTGTCAATCGCTTCGAGTCTCTTTCACTGCCCTTGACCTTGGACGGC	3.34 PBM z-score against 500 random probes
NRC3_wobSeed21_DR0_A7T_o1 (dsDNA) DNA 1: GCCGTCTAAGTTCAAGGTAACGTAACAGAAAGCAGCGCGATTGACAGCGTAGAATGAAGG DNA 2: CCTTCATTCTACGCTGTCAATCGCGCTGCTTTCTGTTACGTTACCTTGAACTTAGACGGC	3.59 PBM z-score against 500 random probes
NRC3_wobSeed140_DR5_A22G_o1 (dsDNA) DNA 1: GCAGAATGAGGTTATACGTAGGTCAGGGAAGAAAGTGCGATTGACAGCGTAGAATGAAGG DNA 2: CCTTCATTCTACGCTGTCAATCGCACTTTCTTCCCTGACCTACGTATAACCTCATTCTGC	3.29 PBM z-score against 500 random probes
NRC3_wobSeed106_DR4_G6C_o1 (dsDNA) DNA 1: GCCTCCAAAGGTCGGTTGAGGTGAGTATACGGATAAGCGATTGACAGCGTAGAATGAAGG DNA 2: CCTTCATTCTACGCTGTCAATCGCTTATCCGTATACTCACCTCAACCGACCTTTGGAGGC	3.35 PBM z-score against 500 random probes
NRC3_wobSeed112_DR4_T8A_o1 (dsDNA) DNA 1: GCTAGCCAAGGTCAGATCGGGCCAGTATACGCTATAGCGATTGACAGCGTAGAATGAAGG DNA 2: CCTTCATTCTACGCTGTCAATCGCTATAGCGTATACTGGCCCGATCTGACCTTGGCTAGC	3.44 PBM z-score against 500 random probes
NRC3_wobSeed3_DR0_A9G_o1 (dsDNA) DNA 1: GCGCTCGGGGGACAAGGTCAGAGCTTTGTCCGTAGAGCGATTGACAGCGTAGAATGAAGG DNA 2: CCTTCATTCTACGCTGTCAATCGCTCTACGGACAAAGCTCTGACCTTGTCCCCCGAGCGC	3.22 PBM z-score against 500 random probes
